Source: publication PMC12668182, “Molecular basis for CSB stimulation of the SNM1A DNA repair nuclease” (Research Square, 2025)
Changes are numbered by the printed parent chain. Names and notes keep the numbering of the source. Values joined by “and” are separate entries in the source; they are usually repeats but may differ in a detail not shown here. Equal values may be shown once.

B1: CSB lacking the N-terminal domain (DN-CSB, a.a. 402-1493) (domain or fragment, human, UniProt Q03468 402-1493, looked up)
chain: YELKPLPKGGKRQKKVPVQEIDDDFFPSSGEEAEAASVGEGGGGGRKVGRYRDDGDEDYYKQRLRRWNKLRLQDKEKRLKLEDDSEESDAEFDEGFKVPGFLFKKLFKYQQTGVRWLWELHCQQAGGILGDEMGLGKTIQIIAFLAGLSYSKIRTRGSNYRFEGLGPTVIVCPTTVMHQWVKEFHTWWPPFRVAILHETGSYTHKKEKLIRDVAHCHGILITSYSYIRLMQDDISRYDWHYVILDEGHKIRNPNAAVTLACKQFRTPHRIILSGSPMQNNLRELWSLFDFIFPGKLGTLPVFMEQFSVPITMGGYSNASPVQVKTAYKCACVLRDTINPYLLRRMKSDVKMSLSLPDKNEQVLFCRLTDEQHKVYQNFVDSKEVYRILNGEMQIFSGLIALRKICNHPDLFSGGPKNLKGLPDDELEEDQFGYWKRSGKMIVVESLLKIWHKQGQRVLLFSQSRQMLDILEVFLRAQKYTYLKMDGTTTIASRQPLITRYNEDTSIFVFLLTTRVGGLGVNLTGANRVVIYDPDWNPSTDTQARERAWRIGQKKQVTVYRLLTAGTIEEKIYHRQIFKQFLTNRVLKDPKQRRFFKSNDLYELFTLTSPDASQSTETSAIFAGTGSDVQTPKCHLKRRIQPAFGADHDVPKRKKFPASNISVNDATSSEEKSEAKGAEVNAVTSNRSDPLKDDPHMSSNVTSNDRLGEETNAVSGPEELSVISGNGECSNSSGTGKTSMPSGDESIDEKLGLSYKRERPSQAQTEAFWENKQMENNFYKHKSKTKHHSVAEEETLEKHLRPKQKPKNSKHCRDAKFEGTRIPHLVKKRRYQKQDSENKSEAKEQSNDDYVLEKLFKKSVGVHSVMKHDAIMDGASPDYVLVEAEANRVAQDALKALRLSRQRCLGAVSGVPTWTGHRGISGAPAGKKSRFGKKRNSNFSVQHPSSTSPTEKCQDGIMKKEGKDNVPEHFSGRAEDADSSSGPLASSSLLAKMRARNHLILPERLESESGHLQEASALLPTTEHDDLLVEMRNFIAFQAHTDGQASTREILQEFESKLSASQSCVFRELLRNLCTFHRTSGGEGIWKLKPEYC
notes: Cloned by InFusion from the full-length CSB pFastBac vector
B2: CSB winged-helix domain (WHD, a.a. 1424-1493) (domain or fragment, human, UniProt Q03468 1424-1493, looked up)
chain: HDDLLVEMRNFIAFQAHTDGQASTREILQEFESKLSASQSCVFRELLRNLCTFHRTSGGEGIWKLKPEYC
notes: also called CSB-WHD; source: E. coli BL21(DE3) pLysS, purified (Ni-NTA, Superdex S75)
B3: CSB (a.a. 1308-1493) (domain or fragment, human, UniProt Q03468 1308-1493, looked up)
chain: VSGVPTWTGHRGISGAPAGKKSRFGKKRNSNFSVQHPSSTSPTEKCQDGIMKKEGKDNVPEHFSGRAEDADSSSGPLASSSLLAKMRARNHLILPERLESESGHLQEASALLPTTEHDDLLVEMRNFIAFQAHTDGQASTREILQEFESKLSASQSCVFRELLRNLCTFHRTSGGEGIWKLKPEYC
notes: source: E. coli BL21(DE3) pLysS, purified (Ni-NTA, Superdex S75)
B4: CSB C-terminal domain (a.a. 1187-1493) (domain or fragment, human, UniProt Q03468 1187-1493, looked up)
chain: HHSVAEEETLEKHLRPKQKPKNSKHCRDAKFEGTRIPHLVKKRRYQKQDSENKSEAKEQSNDDYVLEKLFKKSVGVHSVMKHDAIMDGASPDYVLVEAEANRVAQDALKALRLSRQRCLGAVSGVPTWTGHRGISGAPAGKKSRFGKKRNSNFSVQHPSSTSPTEKCQDGIMKKEGKDNVPEHFSGRAEDADSSSGPLASSSLLAKMRARNHLILPERLESESGHLQEASALLPTTEHDDLLVEMRNFIAFQAHTDGQASTREILQEFESKLSASQSCVFRELLRNLCTFHRTSGGEGIWKLKPEYC
notes: pNIC28-Bsa4 vector: N-terminal His6 followed by a TEV site; no cleavage is described; also called C-terminal CSB construct; source: E. coli BL21(DE3) pLysS, purified (Ni-NTA, Superdex S75)
B5: N-Avi-Biotin-SNM1A (a.a. 698-1040), wild type (domain or fragment, human, UniProt Q6PJP8 698-1040, looked up)
chain: KKTCPFYKKIPGTGFTVDAFQYGVVEGCTAYFLTHFHSDHYAGLSKHFTFPVYCSEITGNLLKNKLHVQEQYIHPLPLDTECIVNGVKVVLLDANHCPGAVMILFYLPNGTVILHTGDFRADPSMERSLLADQKVHMLYLDTTYCSPEYTFPSQQEVIRFAINTAFEAVTLNPHALVVCGTYSIGKEKVFLAIADVLGSKVGMSQEKYKTLQCLNIPEINSLITTDMCSSLVHLLPMMQINFKGLQSHLKKCGGKYNQILAFRPTGWTHSNKFTRIADVIPQTKGNISIYGIPYSEHSSYLEMKRFVQWLKPQKIIPTVNVGTWKSRSTMEKYFREWKLEAGY
modifications: biotin on the N-terminal Avi tag
notes: SNM1A (DCLRE1A), human, core catalytic domain (MBL-beta-CASP), residues 698-1040; Immobilised in SPR through the biotinylated Avi tag; held on streptavidin mutein beads in the co-purifications; also called N-Avi-SNM1A_(698-1040); core catalytic domain of SNM1A; source: Sf9 insect cells (BirA co-expressed, D-biotin added), purified (streptavidin mutein matrix, Superdex S75); not shown: Avi …
B6: HaloTag-JF-552-labelled SNM1A (a.a. 698-1040), partially purified (domain or fragment, human, UniProt Q6PJP8 698-1040, looked up)
chain: B5 chain
modifications: JF-552 dye on the HaloTag
notes: SNM1A (DCLRE1A), human, catalytic C-terminal domain, residues 698-1040; Addgene vector (printed as Addgene: 58241) giving an N-terminal His-Halo tag; also called SNM1A (JF-552, green); SNM1A_(698-1040) for single-molecule studies; source: Expi293F, transfected, partially purified (Ni-NTA); not shown: HaloTag, N-terminal, kept
B7: E864A-SNM1A (MBL-beta-CASP domain, a.a. 698-1040), N-Avi (domain or fragment, human, UniProt Q6PJP8 698-1040, looked up)
chain: B5 chain with E167A
modifications: biotin on the N-terminal Avi tag
notes: SNM1A (DCLRE1A), human, core catalytic domain, residues 698-1040, E864A; also called SNM1A-E864A; SNM1A (E864A); source: Sf9 insect cells (D-biotin added), purified (streptavidin mutein matrix, gel filtration)
B8: SNM1A (a.a. 698-1040), tag of the preparation not stated (domain or fragment, human, UniProt Q6PJP8 698-1040, looked up)
chain: B5 chain
notes: SNM1A (DCLRE1A), human, core catalytic domain, residues 698-1040; Used for HDX-MS, mass photometry and nuclease assays; Mass photometry legend gives an expected mass of 36 kDa; also called C-terminal SNM1A; source: purified from insect cells

Columns and labels:
[1] = target: the molecule itself; assay: SEC-MALS; DN-CSB alone, 5 uM; monomer to dimer
[2] = target: B5; assay: pull-down + SEC; co-purification: CSB construct (eluted from Ni-NTA, desalted) incubated with N-Avi-Biotin-SNM1A on streptavidin mutein beads, washed (500 mM NaCl, 1 mM Mg2+), eluted with 5 mM D-biotin, run on Superdex S200 GL 10/300; SDS-PAGE, MS and calibration curve; conditions: both partners purified
[3] = target: B5; assay: SPR; single-cycle; SNM1A immobilised via biotinylated N-terminal Avi tag on a Series S SA surface (~4000 RU); CSB constructs as analytes, 5 or 6 two-fold dilutions from 500 nM or 1 uM; 20 mM HEPES pH 7.5, 150 mM NaCl, 0.5 mM TCEP; 1:1 Langmuir fit; apparent KD; conditions: both partners purified
[4] = target: B7; assay: as above; conditions: both partners purified
[5] = target: B5; assay: SPR; multi-cycle; SNM1A immobilised via biotinylated N-terminal Avi tag (~4000 RU); two-fold dilutions from 2 uM, 300 s injection, 1200 s dissociation; regeneration with 1 M NaCl; apparent KD; conditions: both partners purified
[6] = target: T1, full-length CSB (ERCC6), wild type, recombinant (human, UniProt Q03468 1-1493); assay: SPR; single-cycle; SNM1A immobilised via biotinylated N-terminal Avi tag on a Series S SA surface (~4000 RU); CSB constructs as analytes, 5 or 6 two-fold dilutions from 500 nM or 1 uM; 20 mM HEPES pH 7.5, 150 mM NaCl, 0.5 mM TCEP; 1:1 Langmuir fit; apparent KD; conditions: both partners purified
T1 construct: CSB (ERCC6), human, full length, a.a; A TEV site follows the N-terminal tags, but no cleavage is described; also called FL-CSB; WT-CSB; source: Sf9 insect cells, purified (Ni-NTA, Superdex S200, HiTrap SP)

[7] = target: T2, HaloTag-CSB, full length, JaneliaFluor-labelled (human, UniProt Q03468 1-1493, JaneliaFluor dye (JF552 or JF635) on the HaloTag); assay: single-molecule fluorescence on tethered DNA (SMADNE, LUMICKS C-Trap); partially purified HaloTag-JF-552 SNM1A added to HaloTag-CSB (JF635) nuclear extract, on lambda dsDNA; category 9 colocalisation events; apparent constants; DNA present; conditions: one partner purified
T2 construct: CSB (ERCC6), human, full length, codon-optimised for mammalian expression; Vectors with N-terminal HaloTag under a CMV promoter (Promega pFN28A or Addgene 58241, both used on separate days); also called CSB (JF-635, red); CSB (JF552, green); source: Expi293F, transfected, in nuclear extract; not shown: HaloTag, N-terminal, kept

[8] = target: T2, HaloTag-CSB, full length, …; assay: single-molecule fluorescence on tethered DNA (SMADNE, LUMICKS C-Trap); partially purified HaloTag-JF-552 SNM1A added to HaloTag-CSB (JF635) nuclear extract, on a site-specific ICL flap repair intermediate in 12 kb DNA; apparent constants; DNA present; conditions: one partner purified
[9] = target: T1, full-length CSB (ERCC6), wild type, …; assay: mass photometry; CSB and SNM1A mixed at 200 nM each, 5 min at room temperature, diluted 10-fold into the gasket; 50 mM HEPES pH 7.5, 300 mM NaCl, 0.5 mM TCEP; KD from mass counts; conditions: both partners purified

Binder: B1
stoichiometry N [1]: 2

Binder: B2
stoichiometry N [2]: 1 | Kd [3]: 89 nM | Kd [4]: ~1000 nM

Binder: B3
binding result [5]: binds

Binder: B4
stoichiometry N [2]: 2 | Kd [3]: 10.7 nM and 12 nM | Kd [4]: 29 nM

Binder: B5
Kd [6]: 4.8 nM and 4 nM

Binder: B6
apparent KD of SNM1A for CSB-bound lambda dsDNA [7]: 17.5 nM | apparent KD of SNM1A for the CSB-bound ICL repair intermediate [8]: 45 nM

Binder: B7
Kd [6]: 8 nM

Binder: B8
Kd [9]: 499 nM
